These results are taken from paper PMC10849588.

In the test the target is GMPCPP-stabilized, fluorescently labeled, biotinylated microtubules (untreated) (UniProt P02550).

As for “wild-type full-length Cin8, GFP- and 6x His-tagged (from UniProt P27895 1-1000) (natural protein)”, the % of (+)-end movements, Clusters, 110 mM KCl was found to be 41%; the % of (+)-end movements, Monomers (single molecules), 110 mM KCl came out at 29%; the % of total runs >60 s, Monomers (single molecules), 110 mM KCl amounted to 17%.
